Measurements taken from publication PMC3865253.

Columns and labels:
[1] = biological target: YFP-ICAC84-224 (rat); assay: FRET or BRET; living HEK293T cells co-expressing CFP- and YFP-tagged proteins; three-filter imaging; normalized FRET signal N_FRET (Eq. 1); when FRET occurs N_FRET is greater than 0.2
[2] = biological target: GFP-ICAC84-224 (rat); assay: co-IP; 293T cells co-transfected with myc-PICK1 and GFP, GFP-ICA69 or a GFP-tagged truncation; RIPA lysate; precipitated with anti-GFP antibody on protein A-sepharose; blot with anti-myc; quantified as Co-IP myc/Input myc, normalized to the ICA69 group; 4 independent cultures
[3] = biological target: GFP-ICAC1-83 (rat); assay: as above

Chain of YFP-ICAC84-224 (rat) (Q63054 whole entry, the tested form may be a part): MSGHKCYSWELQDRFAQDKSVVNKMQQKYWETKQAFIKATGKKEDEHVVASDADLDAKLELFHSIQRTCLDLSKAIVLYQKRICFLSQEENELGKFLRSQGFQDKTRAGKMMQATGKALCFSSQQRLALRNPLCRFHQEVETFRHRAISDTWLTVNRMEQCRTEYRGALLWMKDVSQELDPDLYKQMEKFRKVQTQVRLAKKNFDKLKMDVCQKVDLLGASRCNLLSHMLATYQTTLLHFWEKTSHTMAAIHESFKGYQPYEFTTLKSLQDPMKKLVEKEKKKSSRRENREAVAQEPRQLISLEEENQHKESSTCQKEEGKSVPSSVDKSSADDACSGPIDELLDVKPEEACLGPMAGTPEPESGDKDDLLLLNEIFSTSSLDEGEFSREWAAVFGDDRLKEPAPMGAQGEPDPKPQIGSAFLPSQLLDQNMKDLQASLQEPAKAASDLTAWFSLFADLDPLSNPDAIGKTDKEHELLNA
Chain of GFP-ICAC84-224 (rat) (Q63054 whole entry, the tested form may be a part): as above

Substance	N FRET [1]	percentage of precipitated protein normalized to ICA69 group [2] [%]	percentage of precipitated protein normalized to ICA69 group [3] [%]
CFP-PICK1 (from UniProt Q9EP80 1-416) (natural protein)	0.86	–	–
myc-PICK1 (protein interacting with C-kinase 1) (from UniProt Q9EP80 1-416) (natural protein)	–	66	11
